Paper PMC4900556, “Connexin43 Forms Supramolecular Complexes through Non-Overlapping Binding Sites for Drebrin, Tubulin, and ZO-1” (PLoS ONE, 2016)

What was measured:
[1] = target: T1, 15N-labeled Cx43-CT^234-382 (WT), GST tag cleaved (UniProt P08050 234-382, 15N-labeled); test: NMR titration; 15N-HSQC, 600 MHz; 15N-labeled Cx43-CT constant at 50 μM in 1X PBS pH 7.5, unlabeled Drb^1-300 added from 50 to 700 μM; KD by nonlinear fitting of the decrease in signal intensity of at least three residues of each area; conditions: both partners purified
T1 construct: Construct used in the NMR titrations; source: E. coli BL21 DE3, purified (glutathione agarose), GST tag cleaved on the beads with Turbo 3C

[2] = target: 15N-labeled Cx43CT^234-382 Y265D, GST tag cleaved (UniProt P08050); test: as above
[3] = target: 15N-labeled Cx43CT^234-382 Y265D, GST tag cleaved (UniProt P08050 234-382, Y265D, 15N-labeled); test: NMR; Area 3 (residues K303, N312, S314)

T1 sequence (P08050 234-382): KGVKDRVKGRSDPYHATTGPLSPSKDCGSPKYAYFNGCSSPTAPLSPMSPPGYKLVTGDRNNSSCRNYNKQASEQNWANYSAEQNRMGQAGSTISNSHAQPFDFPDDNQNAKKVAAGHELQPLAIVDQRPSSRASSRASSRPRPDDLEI
Sequence of 15N-labeled Cx43CT^234-382 Y265D, GST tag cleaved (UniProt P08050) (P08050 234-382 Y265D): as the sequence (P08050 234-382) above, with Y32D counted along it

B1: Drebrin A 1–300 (Drb^1-300), untagged (domain or fragment, UniProt Q9QXS6 1-300, looked up)
chain: MAGVSFSGHRLELLAAYEEVIREESAADWALYTYEDGSDDLKLAASGEGGLQELSGHFENQKVMYGFCSVKDSQAALPKYVLINWVGEDVPDARKCACASHVAKVAEFFQGVDVIVNASSVEDIDAGAIGQRLSNGLARLSSPVLHRLRLREDENAEPVGTTYQKTDAAVEMKRINREQFWEQAKKEEELRKEEERKKALDARLRFEQERMEQERQEQEERERRYREREQQIEEHRRKQQSLEAEEAKRRLKEQSIFGDQRDEEEESQMKKSESEVEEAAAIIAQRPDNPREFFRQQERV
notes: Drebrin A residues 1-300; also called drebrin amino acids 1–300; N-terminal fragment of drebrin; source: E. coli Rosetta cells, purified on glutathione-agarose column, GST tag digested and captured with a Thrombin kit
KD of Area 1 (264–275) [1]: 283 µM
KD of Area 2 (282–290) [1]: 279 µM
KD of Area 3 (299–321) [1]: 344 µM
KD of Area 3 [2]: 500 µM
Kd [3]: 466 µM
